# Measurements reported in patent US9011842.
# Where “and” joins values, the source holds several entries; their conditions need not be identical. Identical values can stand only once.
# T1: 33-mer peptide fragment of α-gliadin, LQLQPFPQPQLPYPQPQLPYPQPQLPYPQPQPF (SEQ ID NO:1)
# T1 chain: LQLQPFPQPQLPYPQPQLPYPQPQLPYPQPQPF
# Molecular target: T1, 33-mer peptide fragment of α-gliadin, …
protein,measurement,value
proteinase K (protein) AAQTNAPWGLARISSTSPGTSTYYYDESAGQGSCVYVIDTGIEASHPEFEGRAQMVKTYYYSSRDGNGHGTHCAGTVGSRTYGVAKKTQLFGVKVLDDNGSGQYSTIIAGMDFVASDKNNRNCPKGVVASLSLGGGYSSSVNSAAARLQSSGVMVAVAAGNNNADARNYSPASEPSVCTVGASDRYDRRSSFSNYGSVLDIFGPGTSILSTWIGGSTRSISGTSMATPHVAGLAAYLMTLGKTTAASACRYIADTANKGDLSNIPFGTVNLLAYNNYQA,"hydrolysis of the 33-mer peptide (HPLC-MS), 15 hours, SIF pH 6.8","at intestinal conditions (pH≈6.8), proteinase K did not hydrolyze most of the 33-mer peptide"
papain (protein) IPEYVDWRQKGAVTPVKNQGSCGSCWAFSAVVTIEGIIKIRTGNLNEYSEQELLDCDRRSYGCNGGYPWSALQLVAQYGIHYRNTYPYEGVQRYCRSREKGPYAAKTDGVRQVQPYNEGALLYSIANQPVSVVLEAAGKDFQLYRGGIFVGPCGNKVDHAVAAVGYGPNYILIKNSWGTGWGENGYIRIKRGTGNSYGVCGLYTSSFYPVKN,"hydrolysis of the 33-mer peptide (HPLC-MS), 1 hour, pH 4.5",Papain completely hydrolyzed the 33-mer peptide at a pH of about 4.5
Oryzin (protein) GLTTQKSAPWGLGSISHKGQQSTDYIYDTSAGEGTYAYVVDSGVNVDHEEFEGRASKAYNAAGGQHVDSIGHGTHVSGTIAGKTYGIAKKASILSVKVFQGESSSTSVILDGFNWAANDIVSKKRTSKAAINMSLGGGYSKAFNDAVENAFEQGVLSVVAAGNENSDAGQTSPASAPDAITVAAIQKSNNRASFSNFGKVVDVFAPGQDILSAWIGSSSATNTISGTSMATPHIVGLSLYLAALENLDGPAAVTKRIKELATKDVVKDVKGSPNLLAYNGNA,"degradation of the 33-mer peptide (ELISA of intact 33-mer), 0.1 mg/ml enzyme, SIF pH 6.8",Oryzin alone did not degrade the 33-mer peptide
same,"degradation of the 33-mer peptide (ELISA), 60 min, SIF pH 6.8, lowest enzyme concentrations","Oryzin, at the lowest concentrations, did not degrade the 33-mer peptide"
same,"percent of the 33-mer peptide degraded (ELISA), 60 min, SIF pH 6.8, 0.4 mg/ml and 0.8 mg/ml enzyme","at higher concentrations (0.4 mg/ml and 0.8 mg/ml), Oryzin degraded about 10% to about 20% of the 33-mer peptide"
Neutral protease II (protein) TEVTDCKGDAESSLTTALSNAAKLANQAAEAAESGDESKFEEYFKTTDQQTRTTVAERLRAVAKEAGSTSGGSTTYHCNDPYGYCEPNVLAYTLPSKNEIANCDIYYSELPPLAQKCHAQDQATTTLHEFTHAPGVYQPGTEDLGYGYDAATQLSAQDALNNADSYALYANAIELKC,"degradation of the 33-mer peptide (ELISA of intact 33-mer), 0.1 mg/ml enzyme, SIF pH 6.8",NP I and NP II each exhibited a limited ability to degrade the 33-mer peptide
same,"percent of the 33-mer peptide degraded (ELISA), 60 min, SIF pH 6.8",NP II alone degraded about 20% to about 30% of the 33-mer peptide
Carboxypeptidase Y derived from Saccharomyces cerevisiae (protein) KIKDPKILGIDPNVTQYTGYLDVEDEDKHFFFWTFESRNDPAKDPVILWLNGGPGCSSLTGLFFELGPSSIGPDLKPIGNPYSWNSNATVIFLDQPVNVGFSYSGSSGVSNTVAAGKDVYNFLELFFDQFPEYVNKGQDFHIAGESYAGHYIPVFASEILSHKDRNFNLTSVLIGNGLTDPLTQYNYYEPMACGEGGEPSVLPSEECSAMEDSLERCLGLIESCYDSQSVWSCVPATIYCNNAQLAPYQRTGRNVYDIRKDCEGGNLCYPTLQDIDDYLNQDYVKEAVGAEVDHYESCNFDINRNFLFAGDWMKPYHTAVTDLLNQDLPILVYAGDKDFICNWLGNKAWTDVLPWKYDEEFASQKVRNWTASITDEVAGEVKSYKHFTYLRVFNGGHMVPFDVPENALSMVNEWIHGGFSL,"digestion of the 33-mer peptide (HPLC-MS), in vitro gastrointestinal model with pepsin, trypsin and chymotrypsin present","GDEP-M, CPY, and the combination of GDEP-M and CPY efficiently digested the 33-mer peptide in the artificial gastrointestinal condition"
same,"hydrolysis of the 33-mer peptide (HPLC-MS and ELISA), pH 5.0","CPY, MX-PEP, and AN-PEP hydrolyze the 33-mer peptide. AN-PEP appears to have the strongest activity against the 33-mer peptide, followed by CPY and then MX-PEP"
same,"hydrolysis of the 33-mer peptide (HPLC-MS), 4 hours, SIF pH 6.8",CPY efficiently hydrolyzed the 33-mer peptide and residual peptides were approximately 20 amino acids in length
same,"hydrolysis of the 33-mer peptide (HPLC-MS), 4 hours, buffer pH 4.0 to 7.0",CPY completely hydrolyzed the 33-mer peptide at acidic pH
same,"percent of the 33-mer peptide digested (ELISA), in vitro gastrointestinal model with pepsin, trypsin and chymotrypsin present",CPY alone digested about 95% of the 33-mer peptide
